In this data set the target is kinase substrate domain (MidT) fused to the omega subunit of RNA polymerase (RpoZ), no protease recognition site in the linker, P0A800.
Chain of kinase substrate domain (MidT) fused to the omega subunit of RNA polymerase (RpoZ), no protease recognition site in the linker, P0A800 (P0A800 whole entry, looked up, the tested form may be a part): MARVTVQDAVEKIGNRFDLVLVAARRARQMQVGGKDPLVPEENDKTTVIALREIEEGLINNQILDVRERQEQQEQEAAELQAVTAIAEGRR

B1: Striatum-enriched protein-tyrosine phosphatase catalytic domain (STEP282-563) (protein)
chain: MSSGVDLGTENLYFQSMSRVLQAEELHEKALDPFLLQAEFFEIPMNFVDPKEYDIPGLVRKNRYKTILPNPHSRVCLTSPDPDDPLSSYINANYIRGYGGEEKVYIATQGPIVSTVADFWRMVWQEHTPIIVMITNIEEMNEKCTEYWPEEQVAYDGVEITVQKVIHTEDYRLRLISLKSGTEERGLKHYWFTSWPDQKTPDRAPPLLHLVREVEEAAQQEGPHCAPIIVHCSAGIGRTGCFIATSICCQQLRQEGVVDILKTTCQLRQDRGGMIQTCEQYQFVHHVMSLYEKQLSHQS
Turning to B1, the “spectinomycin resistance of E. coli with the PTP-specific B2H” value is on record as “did not yield functional two-hybrid systems, most likely due to low activity against the MidT substrate”.

The values above are taken from patent publication US20250034551A1, “METHODS AND SYSTEMS FOR HIGH-THROUGHPUT BIOCHEMICAL SCREENS” (THINK BIOSCIENCE, INC., priority 2021, published 2025).
